Like-named read-outs stand apart in the source and are kept apart here.
Key:
[1] = target: PfHsp70-1-PfHop association (Plasmodium falciparum, UniProt Q8IB24+Q8ILC1); assay: ELISA for the direct association of PfHsp70-1 and PfHop; format: biochemical; settings: for Effect on association of PfHsp70-1 and PfHop: 25 µM nucleotide or inhibitor
Method: An enzyme-linked immunosorbent assay (ELISA) was used to validate the effect of PES on the direct association of PfHsp70-1 and PfHop following a previously described protocol ([Mabate et al., 2018]). Briefly, ligand (5 μg/ml of PfHsp70-1) suspended in 5 mM sodium bicarbonate (NaHCO3) at pH 9.5 was noncovalently immobilized onto a 96 well plate overnight at 4 C. BSA (5 μg/ml) was used as a ligand for the negative control. The wells were washed with 150 µl TBST which contains (Tris-buffered saline- Tween (TBST; 20 mM Tris HCl, pH 7.5, 500 mM NaCl supplemented with 0.1% Tween 20) prior to blocking with 5% fat-free milk in TBST and incubated at 25 C for 1 h. The wells were washed using TBST for a total of 10 min. Varying concentrations (0–1,000 nM) of analyte PfHop were added to the wells and incubated for 2 h at 25 °C. To remove the unbound analyte, the plate was washed with 150 µl TBST three times before the addition of rabbit-raised α-PfHop antibody (1: 4,000) followed by incubation at 25°C for 1 h. Subsequently, the wells were washed with 150 µl TBST three times before the addition of 100 µl secondary HRP conjugated goat-raised α-rabbit antibody (1: 4,000) and incubated for 45 min at 25 °C. The substrate, 3,3’5,5’ –tetramethylbenzidine (TMB) (Bio Scientific, United States) was added into the wells and incubated for 2 min at 25 C. Color development was monitored by recording absorbance readings at 370 nm at 5 min time intervals for 30 min using a SpectraMax M3 Microplate reader (Molecular Devices, United States). To determine the effect of the inhibitor, the assay was conducted in the presence of 25 µM) of PES. […] Furthermore, the assay was repeated interchanging the ligand and analyte to validate data reproducibility. The generated data were analyzed taking into account the background signal generated by BSA which served as the control protein. The absorbance values obtained at the highest concentration of each analyte were averaged to represent maximum (100%) binding. Titration curves were then generated using GraphPad Prism 9.3.1 (GraphPad Software, United States). The relative binding affinities of PES under each experimental setting were normalized relative to the affinity estimated for assay conducted in the absence of nucleotide at the highest concentration of PfHop. Statistical analysis was conducted to establish significant differences at p < 0.05 using a student t-test.

PfHop = target: T1, PfHop (Plasmodium falciparum, UniProt Q8ILC1); assay: SPR equilibrium binding to immobilized PfHop
T1 construct: His; made in house; host or cells: E. coli XL1 Blue
T1 sequence (Q8ILC1 1-564): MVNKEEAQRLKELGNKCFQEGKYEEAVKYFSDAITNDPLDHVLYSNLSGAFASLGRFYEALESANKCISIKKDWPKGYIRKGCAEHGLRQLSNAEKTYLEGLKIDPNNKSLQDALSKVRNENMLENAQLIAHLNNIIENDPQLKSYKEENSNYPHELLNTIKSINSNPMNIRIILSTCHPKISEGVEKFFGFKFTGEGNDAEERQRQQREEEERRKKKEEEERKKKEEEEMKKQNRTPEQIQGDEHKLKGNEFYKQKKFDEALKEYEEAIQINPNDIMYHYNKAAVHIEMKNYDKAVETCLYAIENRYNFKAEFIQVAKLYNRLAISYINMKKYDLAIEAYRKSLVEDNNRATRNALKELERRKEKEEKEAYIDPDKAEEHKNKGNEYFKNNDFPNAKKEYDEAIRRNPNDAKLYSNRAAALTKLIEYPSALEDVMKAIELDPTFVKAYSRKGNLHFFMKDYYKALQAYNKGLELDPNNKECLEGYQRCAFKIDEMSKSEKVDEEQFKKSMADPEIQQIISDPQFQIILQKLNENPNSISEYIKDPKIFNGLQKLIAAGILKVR
Method: The steady-state equilibrium binding kinetics for the inhibitors on either PfHsp70-1 or PfHop were investigated using BioNavis Navi 420A ILVES multi-parametric surface plasmon resonance (MP-SPR) system (BioNavis, Finland) following a previously described method ([Lebepe et al., 2020]; [Chakafana et al., 2021]). Briefly, filter-sterilized de-gassed PBS (4.3 mM Na2HPO4, 1.4 mM KH2PO4, 137 mM NaCl, 3 mM KCl, 0.005% (v/v) Tween 20, and 20 mM EDTA; pH 7.4) was used as running buffer for the assay. The ligand (0.1 μg/ml of PfHsp70-1/PfHop) was immobilized onto a carboxymethyl dextran (CMD 3-D) gold sensor chip through amine coupling. PES was injected (flow rate of 50 μl/min) as analyte at varying final concentrations (0, 1.25, 2.5, 5, 10, 20 nM). […] Steady-state equilibrium was achieved after allowing the interaction to occur for 8 min at 25°C, followed by dissociation for 4 min at 25°C, respectively. The data generated were analyzed using Data Viewer (BioNavis, Finland) after subtraction of baseline (signals generated on the chip surface without protein immobilized and buffer without inhibitor). The resultant sensorgrams were analyzed to determine the equilibrium binding affinities using Trace Drawer software version 1.8 (Ridgeview Instruments; Sweden).

[2] = system: Asexual P. falciparum strain 3D7 parasites; settings: read-out: IC50 published potency, ref Smilkstein et al., 2004; cited from earlier work
[3] = system: Asexual P. falciparum strain 3D7 parasites; assay: Parasite growth inhibition assay (SYBR Gold); format: cell-based; settings: Plasmodium falciparum, 3D7, 96 h, read-out: IC50 parasite growth
Method: Parasite growth without any drug present, which allowed the parasites to proliferate unrestricted, was used as negative drug control. SYBRTM Gold DNA stain (Invitrogen, ThermoFisher Scientific Inc., Germany) was used to measure the proliferation of the parasites compared to the controls as previously described ([[…] al., 2004]). Fluorescence was measured using a TECAN Spark® multimode microplate reader (Tecan Trading AG, Switzerland) and the data were analyzed using SigmaPlot, version 12 (Systat Software Inc., IL, United States).

[4] = target: T2, Plasmodium falciparum Hsp70-1 (Plasmodium falciparum, UniProt Q8IB24 1-677); assay: SPR; ligand and analyte switched: PfHop immobilised, PfHsp70-1 analyte; with PES; bivalent fit model; settings: both partners purified
T2 construct: Plasmodium falciparum Hsp70-1 (PF3D7_0818900), cytosolic Hsp70; also called PfHsp70-1; PF3D7_0818900

[5] = target: T2, Plasmodium falciparum Hsp70-1; assay: SPR; ligand and analyte switched: PfHop immobilised, PfHsp70-1 analyte; with ADP; bivalent fit model; settings: both partners purified
[6] = target: T2, Plasmodium falciparum Hsp70-1; assay: SPR; PfHsp70-1 immobilised as ligand; PfHop analyte 0-2000 nM, 25 C, PBS; with 25 uM EGCG; bivalent fit model; settings: both partners purified
[7] = target: T2, Plasmodium falciparum Hsp70-1; assay: SPR; ligand and analyte switched: PfHop immobilised, PfHsp70-1 analyte; with EGCG; bivalent fit model; settings: both partners purified
[8] = target: T2, Plasmodium falciparum Hsp70-1; assay: SPR; ligand and analyte switched: PfHop immobilised, PfHsp70-1 analyte; with ATP; bivalent fit model; settings: both partners purified
[9] = target: T2, Plasmodium falciparum Hsp70-1; assay: SPR; PfHsp70-1 immobilised as ligand; PfHop analyte 0-2000 nM, 25 C, PBS; with 25 uM ATP; bivalent fit model; settings: both partners purified
[10] = target: T2, Plasmodium falciparum Hsp70-1; assay: SPR; PfHsp70-1 immobilised as ligand; PfHop analyte 0-2000 nM, 25 C, PBS; with 25 uM PES; bivalent fit model; settings: both partners purified
[11] = target: T2, Plasmodium falciparum Hsp70-1; assay: SPR; ligand and analyte switched: PfHop immobilised, PfHsp70-1 analyte; no nucleotide or inhibitor (NN); bivalent fit model; settings: both partners purified
[12] = target: T2, Plasmodium falciparum Hsp70-1; assay: SPR; PfHsp70-1 immobilised as ligand; PfHop analyte 0-2000 nM, 25 C, PBS; with 25 uM ADP; bivalent fit model; settings: both partners purified
[13] = target: T2, Plasmodium falciparum Hsp70-1; assay: SPR; PfHsp70-1 immobilised as ligand; PfHop analyte 0-2000 nM, 20 ul/min, 25 C, PBS; no nucleotide or inhibitor (NN); bivalent fit model; settings: both partners purified

Nc1ncnc2c1ncn2[C@@H]1O[C@H](COP(=O)(O)OP(=O)(O)O)[C@@H](O)[C@H]1O [ADP]
Effect on association of PfHsp70-1 and PfHop [1]: promoted the association

Nc1ncnc2c1ncn2[C@@H]1O[C@H](COP(=O)(O)OP(=O)(O)OP(=O)(O)O)[C@@H](O)[C@H]1O [ATP]
Effect on association of PfHsp70-1 and PfHop [1]: abrogated the association
Kd (PfHop): 861 ± 10 nM

O=C(O[C@@H]1Cc2c(O)cc(O)cc2O[C@@H]1c1cc(O)c(O)c(O)c1)c1cc(O)c(O)c(O)c1 [EGCG, (−)-Epigallocatechin-3-gallate]
IC50 ([1]; ligand PfHop, analyte PfHsp70-1): 14.6 ± 1.8 nM
IC50 ([1]; ligand PfHsp70-1, analyte PfHop): 13.9 ± 1.2 nM

CCN(CC)CCCC(C)Nc1ccnc2cc(Cl)ccc12 (stereo not shown) [chloroquine]
IC50 [2]: 21 ± 1.7 nM
IC50 [3]: 29.1 ± 1.3 nM

B1: Plasmodium falciparum Hsp90-Hsp70 organizing protein (natural protein, UniProt Q8ILC1 1-564, looked up)
chain: MVNKEEAQRLKELGNKCFQEGKYEEAVKYFSDAITNDPLDHVLYSNLSGAFASLGRFYEALESANKCISIKKDWPKGYIRKGCAEHGLRQLSNAEKTYLEGLKIDPNNKSLQDALSKVRNENMLENAQLIAHLNNIIENDPQLKSYKEENSNYPHELLNTIKSINSNPMNIRIILSTCHPKISEGVEKFFGFKFTGEGNDAEERQRQQREEEERRKKKEEEERKKKEEEEMKKQNRTPEQIQGDEHKLKGNEFYKQKKFDEALKEYEEAIQINPNDIMYHYNKAAVHIEMKNYDKAVETCLYAIENRYNFKAEFIQVAKLYNRLAISYINMKKYDLAIEAYRKSLVEDNNRATRNALKELERRKEKEEKEAYIDPDKAEEHKNKGNEYFKNNDFPNAKKEYDEAIRRNPNDAKLYSNRAAALTKLIEYPSALEDVMKAIELDPTFVKAYSRKGNLHFFMKDYYKALQAYNKGLELDPNNKECLEGYQRCAFKIDEMSKSEKVDEEQFKKSMADPEIQQIISDPQFQIILQKLNENPNSISEYIKDPKIFNGLQKLIAAGILKVR
notes: Plasmodium falciparum Hsp90-Hsp70 organizing protein, PfHop (PF3D7_1434300); also called PfHop; PF3D7_1434300
Kd [4]: 232 nM
koff [4]: 0.00811 s⁻¹
kon [4]: 35000 M⁻¹ s⁻¹
Kd [5]: 3.1 nM
koff [5]: 0.025 s⁻¹
kon [5]: 8.07e+06 M⁻¹ s⁻¹
Kd [6]: 20700 nM
koff [6]: 0.13 s⁻¹
kon [6]: 6310 M⁻¹ s⁻¹
Kd [7]: 1360 nM
koff [7]: 0.00914 s⁻¹
kon [7]: 6710 M⁻¹ s⁻¹
Kd [8]: 80.9 nM
koff [8]: 0.0215 s⁻¹
kon [8]: 266000 M⁻¹ s⁻¹
Kd [9]: 79.8 nM
koff [9]: 0.0207 s⁻¹
kon [9]: 259000 M⁻¹ s⁻¹
Kd [10]: 214 nM
koff [10]: 0.0266 s⁻¹
kon [10]: 125000 M⁻¹ s⁻¹
Kd [11]: 4.49 nM
koff [11]: 0.0341 s⁻¹
kon [11]: 7.6e+06 M⁻¹ s⁻¹
Kd [12]: 3.08 nM
koff [12]: 0.00308 s⁻¹
kon [12]: 781000 M⁻¹ s⁻¹
Kd [13]: 4.24 nM
koff [13]: 0.00325 s⁻¹
kon [13]: 767000 M⁻¹ s⁻¹
